Assay results reported in patent publication US10766952B2, “Methods for reducing migraine frequency in a subject in need thereof” (Beth Israel Deaconess Medical Center, Inc., priority 2017, dated 2020).

How the values were obtained:
[1] = biological target: T1, human α-CGRP fragments and variants (Homo sapiens, UniProt P06881); assay: Biacore affinity of G1 Fab to human α-CGRP fragments and variants on chip; format: binding; settings: CGRP on chip: 38A (25-38A), 37° C.
T1 construct: host or cells: synthetic peptides
Procedure: Biacore assay for affinity determination. […] All Biacore assays were conducted in HBS-EP running buffer (10 mM HEPES pH 7.4, 150 mM NaCl, 3 mM EDTA, 0.005% v/v polysorbate P20). CGRP surfaces were prepared by diluting the N-biotinylated CGRP to a concentration of less than 0.001 mg/mL into HBS-EP buffer and injecting it across the SA sensor chip using variable contact times. Low capacity surfaces, corresponding to capture levels <50 response units (RU) were used for high-resolution kinetic studies, whereas high capacity surfaces (about 800 RU of captured CGRP) were used for concentration studies, screening, and solution affinity determinations. […] Samples were typically injected for lminute at 100 μL/min and dissociation times of at least 10 minutes were allowed. After each binding cycle, surfaces were regenerated with 25 mM NaOH in 25% v/v ethanol, which was tolerated over hundreds of cycles. An entire titration series (typically generated in duplicate) was fit globally to a 1:1 Langmuir binding model using the BlAevaluation program. This returned a unique pair of association and dissociation kinetic rate constants (respectively, kon and koff) for each binding interaction, whose ratio gave the equilibrium dissociation constant (KD=koff/[…]).

[2] = test system: high-threshold (HT) trigeminovascular neurons; assay: Activation and sensitization of central trigeminovascular neurons by cortical spreading depression (CSD), HT neurons; format: in vivo, rat; settings: for firing of HT neurons before CSD: 30 mg/kg IV, 4 hours after treatment; for firing of HT neurons after CSD: 6 hours after treatment; for expected CSD-induced activation of the HT neurons: 30 mg/kg IV 4 hours before CSD
Procedure: Cortical spreading depression (CSD) was induced mechanically by inserting a glass micropipette (tip diameter 25 μm) about 1 mm into the visual cortex for 10 sec. At a propagation rate of 3-5 mm/min, a single wave of CSD was expected to enter the neuronal receptive field within 1-2 min of cortical stimulation. For verification of CSD, cortical activity was recorded (electrocorticogram) with a glass micropipette (0.9% saline, ˜1 megohm, 7 um tip) placed just below the surface of the cerebral cortex (approximately 100 μm). The electrocorticogram electrode was positioned about 6 mm anterior to the visual cortex.
It was diluted in saline to a final dose of 30 mg/kg and administered intravenously (bolus injection, total volume 0.6-0.7 ml). A corresponding human IgG2 isotype control antibody (isotype-conAb) was also diluted in saline to a final dose of 30 mg/kg and administered intravenously (bolus injection, total volume 1.6-2.0 ml).
The experimental protocol included two parts. The first part was designed to compare CGRP-mAb vs isotype-conAb effects on spontaneous and induced activity of naïve trigeminovascular neurons, and the second part was designed to test CGRP-mAb vs isotype-conAb effects on the activation and sensitization of trigeminovascular neurons by CSD. Both parts included sampling of WDR and HT neurons in male and female rats. In the first part, the baseline neuronal profile was established by (a) mapping the dural, cutaneous and corneal receptive field; (b) measuring responses (mean spikes/sec) to mechanical stimulation of the dura (with a fixed force), skin (brush, pressure, pinch) and cornea (brush), and (c) measuring spontaneous firing rate (recorded over 30 min prior to treatment). Once the baseline was established, CGRP-mAb or isotype-conAb were administered and receptive fields were remapped, neuronal responses to stimulation of the dura, skin and cornea were re-examined, and the spontaneous activity rate was re-sampled at 1, 2, 3, and 4 hours post-treatment. The resulting values for each measure were then compared with the respective baseline values obtained before treatment. In the second part, CSD was induced 4 hours after administration of CGRP-mAb or isotype-conAb and 2 hours later (i.e., 6 hours after treatment) receptive field size, spontaneous activity rate, and response magnitude to stimulation of the dura, skin and cornea were measured again. The resulting post-CSD values for each measure were then compared with the respective pre-CSD values obtained at the 4-hour post-treatment time. This part was initiated only in cases in which the physiological condition of the rats (heart rate, blood pressure, respiration, end tidal CO2) and the neuronal isolation signal (signal-to-noise ratio ≥1:3) were stable at the 4-hour post-treatment time point.
To calculate the response magnitude to each stimulus, the mean firing frequency occurring before the onset of the first stimulus (30 min for spontaneous activity, 10 sec for mechanical stimulation of the dura, skin and cornea) was subtracted from the mean firing frequency that occurred throughout the duration of each stimulus. […] A neuron was considered activated when its mean firing rate after CSD exceeded its mean baseline activity by 2 standard deviations of that mean for a period >10 min, which translated to ≥33% increase in activity. […] Mean firing rates of respective values were compared using nonparametric statistics (Wilcoxon signed-ranks test). Two-tailed level of significance was set at 0.05.

B1: fremanezumab (antibody)
heavy: EVQLVESGGGLVQPGGSLRLSCAASGFTFSNYWISWVRQAPGKGLEWVAEIRSESDASATHYAEAVKGRFTISRDNAKNSLYLQMNSLRAEDTAVYYCLAYFDYGLAIQNYWGQGTLVTVSSASTKGPSVFPLAPCSRSTSESTAALGCLVKDYFPEPVTVSWNSGALTSGVHTFPAVLQSSGLYSLSSVVTVPSSNFGTQTYTCNVDHKPSNTKVDKTVERKCCVECPPCPAPPVAGPSVFLFPPKPKDTLMISRTPEVTCVVVDVSHEDPEVQFNWYVDGVEVHNAKTKPREEQFNSTFRVVSVLTVVHQDWLNGKEYKCKVSNKGLPSSIEKTISKTKGQPREPQVYTLPPSREEMTKNQVSLTCLVKGFYPSDIAVEWESNGQPENNYKTTPPMLDSDGSFFLYSKLTVDKSRWQQGNVFSCSVMHEALHNHYTQKSLSLSPGK
light: EIVLTQSPATLSLSPGERATLSCKASKRVTTYVSWYQQKPGQAPRLLIYGASNRYLGIPARFSGSGSGTDFTLTISSLEPEDFAVYYCSQSYNYPYTFGQGTKLEIKRTVAAPSVFIFPPSDEQLKSGTASVVCLLNNFYPREAKVQWKVDNALQSGNSQESVTEQDSKDSTYSLSSTLTLSKADYEKHKVYACEVTHQGLSSPVTKSFNRGEC
notes: humanized anti-CGRP antagonist antibody, vectors ATCC PTA-6867 and PTA-6866
Q: With B1 as the molecule, how does the KD [1] read?
A: No binding

Q: What about the “difference in HT neurons activated by CSD versus isotype-conAb” value ([2]; 2/14 versus 13/13) of the same molecule?
A: 86%

Q: What about the “HT neuronal responses to dural indentation with VFH before CSD” value ([2]; female rats) of the same molecule?
A: 10.5±1.6

Q: What about the “HT neurons with expansion of dural receptive fields after CSD” value ([2]; female rats) of the same molecule?
A: 0/6

Q: What about the “HT neurons with expansion of facial receptive fields after CSD” value ([2]; female rats) of the same molecule?
A: 0/6

Q: What about the “firing of HT neurons before CSD” value ([2]; female rats, 6 HT neurons) of the same molecule?
A: 3.3±1.7 spikes/sec

Q: What about the “firing of HT neurons after CSD” value ([2]; female rats, 6 HT neurons, 2 hours after CSD, p=0.45) of the same molecule?
A: 5.0±3.4 spikes/sec

Q: What about the “HT neuronal response to brushing the cornea after CSD” value ([2]; female rats, 6 HT neurons, p=0.51) of the same molecule?
A: remained unchanged

Q: And the “expected CSD-induced activation of the HT neurons” value ([2]; female rats)?
A: prevented

Q: What about the “HT neuronal responses to dural indentation with VFH after CSD” value ([2]; female rats, 2 hours after CSD, p=0.72) of the same molecule?
A: 8.1±6.4

Q: What about the “HT neuronal responses to brush, pressure and pinch of the skin after CSD” value ([2]; male and female rats, 2 hours after CSD, p=0.35, 0.63, 0.78) of the same molecule?
A: remained unchanged

Q: What about the “HT neurons activated by CSD (case-by-case analysis)” value ([2]; male and female rats, activated/tested) of the same molecule?
A: 2/14

Q: And the “HT neuronal responses to dural indentation with VFH before CSD” value ([2]; male rats)?
A: 1.8±0.6

Q: What about the “HT neurons with expansion of dural receptive fields after CSD” value ([2]; male rats) of the same molecule?
A: 2/8

Q: And the “HT neurons with expansion of facial receptive fields after CSD” value ([2]; male rats)?
A: 2/8

Q: And the “HT neuronal response to brushing the cornea before CSD” value ([2]; male rats, 8 HT neurons)?
A: 10.8±3.3 spikes/sec

Q: And the “firing of HT neurons before CSD” value ([2]; male rats, 8 HT neurons)?
A: 1.2±0.6 spikes/sec

Q: What about the “firing of HT neurons after CSD” value ([2]; male rats, 8 HT neurons, 2 hours after CSD, p=0.29) of the same molecule?
A: 1.9±1.5 spikes/sec

Q: What about the “HT neuronal response to brushing the cornea after CSD” value ([2]; male rats, 8 HT neurons, p=0.60) of the same molecule?
A: 9.4±1.8 spikes/sec

Q: What about the “expected CSD-induced activation of the HT neurons” value ([2]; male rats) of the same molecule?
A: prevented

Q: And the “HT neuronal responses to dural indentation with VFH after CSD” value ([2]; male rats, 2 hours after CSD, p=0.83)?
A: 1.9±1.5
